Holding throughout (test): scFv ELISA
Background: An ELISA detects its analyte on a solid surface through an enzyme-linked reagent.

In experiment [1] the target is T1, Peptide 8: Biotin-AEAAAKEAAAKEAAAKEAAAKAAA-Tyr-acid (N-terminal biotin; C-terminal acid; no PC).
T1 construct: control peptide without PC
T1 peptide: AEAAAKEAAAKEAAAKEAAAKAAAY
In a few lines: (§1)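 Bound scFv was read as OD450 after HRP–anti-V5 detection, TMB development and HCl stop. PPE with BSA was incubated 1 h at RT on BSA-blocked wells coated overnight at 4° C. with peptide, or on streptavidin wells loaded 1 h with biotinylated PC-peptides at 1 μg/mL.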

Experiment [2] has as its target T2, Peptide 4: Biotin-AGGGGSGGGGSGGGGSAAA-Tyr-acid (N-terminal biotin; C-terminal acid; no PC).
T2 construct: control peptide without PC
T2 peptide: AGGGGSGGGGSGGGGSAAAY
Put shortly: as §1

Experiment [3] deals with Peptide 5: Biotin-…-[Tyr(PC)]-acid.
The target of experiment [4] is Peptide 1: Biotin-…-[Tyr(PC)]-acid.
A further experiment deals with BSA (UniProt P02769).
BSA, sequence (P02769 25-607 limits assumed): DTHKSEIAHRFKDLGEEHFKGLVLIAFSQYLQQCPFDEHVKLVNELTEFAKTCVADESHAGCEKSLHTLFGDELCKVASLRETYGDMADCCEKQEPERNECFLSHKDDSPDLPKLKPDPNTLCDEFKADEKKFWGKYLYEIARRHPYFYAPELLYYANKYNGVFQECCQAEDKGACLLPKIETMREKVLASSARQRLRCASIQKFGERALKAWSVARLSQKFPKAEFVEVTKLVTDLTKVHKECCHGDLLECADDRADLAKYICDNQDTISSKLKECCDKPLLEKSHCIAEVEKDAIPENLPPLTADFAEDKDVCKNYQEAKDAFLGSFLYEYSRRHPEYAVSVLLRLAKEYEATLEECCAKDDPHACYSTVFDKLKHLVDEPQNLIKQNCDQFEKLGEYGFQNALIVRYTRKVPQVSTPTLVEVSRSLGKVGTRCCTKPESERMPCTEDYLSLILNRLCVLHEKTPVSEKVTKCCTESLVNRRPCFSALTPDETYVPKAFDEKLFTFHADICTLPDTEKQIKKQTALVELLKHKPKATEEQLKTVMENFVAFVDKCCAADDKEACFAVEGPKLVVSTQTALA

B1: PcOxP_DB01_F08 (scFv, V domains shown)
VH: EVQLLESGGGLVQPGGSLRLSCAASGFTFSDGYMEWVRQAPGKGLEWVAASRNKWNDYTTEYADSVKGRFTISRDNSKNTLYLQMNSLRAEDTAVYYCARDYYGSSYWYFDVWGQGTLVTVSS
VL: DIVMTQSPDSLAVSLGERATINCTASESLYSSKHKVHYLAWYQQKPGQPPKLLIYGASNRYSGVPDRFSGSGSGTDFTLTISSLQAEDVAVYYCAQFYSYPLTFGGGTKVEIK
notes: scFv in periplasmic extract
On to B1, for which the OD450 in experiment [1] was 0.04 OD450; in experiment [2], 0.04 OD450; in experiment [3] it was 1.22 OD450; in experiment [4], 0.52 OD450; in the experiment with BSA it was 0.06 OD450.

B2: PcOxP_DB01_G03 (scFv, V domains shown)
VH: EVQLLESGGGLVQPGGSLRLSCAASGFTFSDGYMEWVRQAPGKGLEWVAASRNKANDYTTEYADSVKGRFTISRDNSKNTLYLQMNSLRAEDTAVYYCARDYYGSSYWYFDVWGQGTLVTVSS
VL: DIVMTQSPDSLAVSLGERATINCTASTSLYSSKHKVHYLAWYQQKPGQPPKLLIYGASNRYIGVPDRFSGSGSGTDFTLTISSLQAEDVAVYYCAQFYTYPLTFGGGTKVEIK
notes: scFv in periplasmic extract
Consider B2, for which the OD450 turned out to be 0.05 OD450 in experiment [1]; 0.05 OD450 in experiment [2]; 0.94 OD450 in experiment [3]; 0.43 OD450 in experiment [4]; 0.07 OD450 in the experiment with BSA.

B3: PcOxP_DB02_A04 (scFv, V domains shown)
VH: EVQLLESGGGLVQPGGSLRLSCAASGDTFSDFYMEWVRQAPGKGLEWVAASRNKWNDYTTEYADSVKGRFTISRDNSKNTLYLQMNSLRAEDTAVYYCARDYYGSSYWYFDVWGQGTLVTVSS
VL: DIVMTQSPDSLAVSLGERATINCTASESLYSSKHKVHYLAWYQQKPGQPPKLLIYGASNRYIGVPDRFSGSGSGTDFTLTISSLQAEDVAVYYCAQFYSYPLTFGGGTKVEIK
notes: scFv in periplasmic extract
On to B3, for which the OD450 in experiment [1] stood at 0.04 OD450; in experiment [2] it was 0.04 OD450; in experiment [3], 0.82 OD450; in experiment [4], 0.33 OD450; in the experiment with BSA, 0.09 OD450.

B4: PcOxP_DB01_G06 (scFv, V domains shown)
VH: EVQLLESGGGLVQPGGSLRLSCAASGFTFSDYYMEWVRQAPGKGLEWVAASRNKWNDYTTEYADSVKGRFTISRDNSKNTLYLQMNSLRAEDTAVYYCARDYYGSSYWYFDVWGQGTLVTVSS
VL: DIVMTQSPDSLAVSLGERATINCTASESLYSSKHKVHYLAWYQQKPGQPPKLLIYGASNRYSGVPDRFSGSGSGTDFTLTISSLQAEDVAVYYCAQFYSYPLTFGGGTKVEIK
notes: scFv in periplasmic extract
Turning to B4, the OD450 was determined as 0.04 OD450 in experiment [1]; 0.05 OD450 in experiment [2]; 1.32 OD450 in experiment [3]; 0.73 OD450 in experiment [4]; 0.06 OD450 in the experiment with BSA.

B5: PcOxP_DB01_G02 (scFv, V domains shown)
VH: EVQLLESGGGLVQPGGSLRLSCAASGFLFSDFYMEWVRQAPGKGLEWVAASRNKANDYTTTYADSVKGRFTISRDNSKNTLYLQMNSLRAEDTAVYYCARDYYGSHYWYFDVWGQGTLVTVSS
VL: DIVMTQSPDSLAVSLGERATINCTASESLYSSKHKVHYLAWYQQKPGQPPKLLIYGASNREIGVPDRFSGSGSGTDFTLTISSLQAEDVAVYYCAQFYFYPLTFGGGTKVEIK
notes: scFv in periplasmic extract
With B5, the OD450 was found to be 0.04 OD450 in experiment [1]; 0.05 OD450 in experiment [2]; 1.2 OD450 in experiment [3]; 0.82 OD450 in experiment [4]; 0.06 OD450 in the experiment with BSA.

B6: PcOxP_DB01_H06 (scFv, V domains shown)
VH: EVQLLESGGGLVQPGGSLRLSCAASGFTFSDFYMEWVRQAPGKGLEWVAASRNKGNSYTTAYADSVKGRFTISRDNSKNTLYLQMNSLRAEDTAVYYCARDYYGSSYWYFDVWGQGTLVTVSS
VL: DIVMTQSPDSLAVSLGERATINCTASESLYSSKHKVHYLAWYQQKPGQPPKLLIYGASNRYDGVPDRFSGSGSGTDFTLTISSLQAEDVAVYYCANFYSYPLTFGGGTKVEIK
notes: scFv in periplasmic extract
As for B6, the OD450 worked out at 0.07 OD450 in experiment [1]; 0.05 OD450 in experiment [2]; 1.79 OD450 in experiment [3]; 0.96 OD450 in experiment [4]; 0.11 OD450 in the experiment with BSA.

B7: PcOxP_DB01_H01 (scFv, V domains shown)
VH: EVQLLESGGGLVQPGGSLRLSCAASGFTFSSYYMEWVRQAPGKGLEWVAASRNKANLYTTEYADSVKGRFTISRDNSKNTLYLQMNSLRAEDTAVYYCARDYYGSSTWYFDVWGQGTLVTVSS
VL: DIVMTQSPDSLAVSLGERATINCTASESLYSSKHKVHYLAWYQQKPGQPPKLLIYGASNRYIGVPDRFSGSGSGTDFTLTISSLQAEDVAVYYCAQFYSYPLTFGGGTKVEIK
notes: scFv in periplasmic extract
In the case of B7, the OD450 stood at 0.06 OD450 in experiment [1]; 0.07 OD450 in experiment [2]; 1.23 OD450 in experiment [3]; 0.82 OD450 in experiment [4]; 0.09 OD450 with BSA.

B8: PcOxP_DB01_G07 (scFv, V domains shown)
VH: EVQLLESGGGLVQPGGSLRLSCAASGFTFSDYYMEWVRQAPGKGLEWVAASRNKYNDYTTEYADSVKGRFTISRDNSKNTLYLQMNSLRAEDTAVYYCARDYYGSSYWYFDVWGQGTLVTVSS
VL: DIVMTQSPDSLAVSLGERATINCTASESLYGSKHKVHYLAWYQQKPGQPPKLLIYGASNRYIGVPDRFSGSGSGTDFTLTISSLQAEDVAVYYCAQFYSYPLTFGGGTKVEIK
notes: scFv in periplasmic extract
As for B8, the OD450 worked out at 0.04 OD450 in experiment [1]; 0.05 OD450 in experiment [2]; 1.2 OD450 in experiment [3]; 0.46 OD450 in experiment [4]; 0.07 OD450 with BSA.

B9: PcOxP_DB01_F11 (scFv, V domains shown)
VH: EVQLLESGGGLVQPGGSLRLSCAASGFTFSSYYMEWVRQAPGKGLEWVAASRNKANDYTTEYADSVKGRFTISRDNSKNTLYLQMNSLRAEDTAVYYCARDYYGSSYWYYDVWGQGTLVTVSS
VL: DIVMTQSPDSLAVSLGERATINCTASESLYSSKHKVHYLAWYQQKPGQPPKLLIYGASNRYIGVPDRFSGSGSGTDFTLTISSLQAEDVAVYYCAQFYSYPLTFGGGTKVEIK
notes: scFv in periplasmic extract
With B9, the OD450 in experiment [1] is 0.05 OD450; in experiment [2], 0.07 OD450; in experiment [3] it was 1.92 OD450; in experiment [4], 1.55 OD450; in the experiment with BSA it was 0.07 OD450.

B10: PcOxP_DB01_H02 (scFv, V domains shown)
VH: EVQLLESGGGLVQPGGSLRLSCAASGFTFSSYYMEWVRQAPGKGLEWVAASRNKANDYTTEYADSVKGRFTISRDNSKNTLYLQMNSLRAEDTAVYYCARDYYGSSYWYFDVWGQGTLVTVSS
VL: DIVMTQSPDSLAVSLGERATINCTASSSLYSSKHKVHYLAWYQQKPGQPPKLLIYGASNRYIGVPDRFSGSGSGTDFTLTISSLQAEDVAVYYCAQFYSYPLTFGGGTKVEIK
notes: scFv in periplasmic extract
For B10, the OD450 in experiment [1] is 0.06 OD450; in experiment [2] it was 0.07 OD450; in experiment [3] it was 1.1 OD450; in experiment [4], 0.74 OD450; in the experiment with BSA, 0.1 OD450.

B11: PcOxP_DB01_G10 (scFv, V domains shown)
VH: EVQLLESGGGLVQPGGSLRLSCAASGFTFSDFYMEWVRQAPGKGLEWVAASRNKNNDYTTEYADSVKGRFTISRDNSKNTLYLQMNSLRAEDTAVYYCARDYYGSSYWYFDVWGQGTLVTVSS
VL: DIVMTQSPDSLAVSLGERATINCKASQSLYSSKHKKHYLAWYQQKPGQPPKLLIYGASNRYPGVPDRFSGSGSGTDFTLTISSLQAEDVAVYYCAQFYRYPLTFGGGTKVEIK
notes: scFv in periplasmic extract
For B11, the OD450 in experiment [1] amounted to 0.05 OD450; in experiment [2], 0.05 OD450; in experiment [3], 1.52 OD450; in experiment [4] it was 0.71 OD450; in the experiment with BSA, 0.1 OD450.

B12: PcOxP_DB01_F12 (scFv, V domains shown)
VH: EVQLLESGGGLVQPGGSLRLSCAASGFTHSDFYMEWVRQAPGKGLEWVAASRNKANGYTTEYADSVKGRFTISRDNSKNTLYLQMNSLRAEDTAVYYCARDYYGSSYWYFDSWGQGTLVTVSS
VL: DIVMTQSPDSLAVSLGERATINCTASESLYSSKHKVHYLAWYQQKPGQPPKLLIYGASNRYVGVPDRFSGSGSGTDFTLTISSLQAEDVAVYYCAQFYSYPLTFGGGTKVEIK
notes: scFv in periplasmic extract
As for B12, the OD450 amounted to 0.05 OD450 in experiment [1]; 0.05 OD450 in experiment [2]; 1.43 OD450 in experiment [3]; 0.76 OD450 in experiment [4]; 0.06 OD450 with BSA.

B13: PcOxP_DB01_G05 (scFv, V domains shown)
VH: EVQLLESGGGLVQPGGSLRLSCAASGFTFSSYYMEWVRQAPGKGLEWVAASRNKANEYTTEYADSVKGRFTISRDNSKNTLYLQMNSLRAEDTAVYYCARDYYGSSYWYFDVWGQGTLVTVSS
VL: DIVMTQSPDSLAVSLGERATINCTASESLYSSKHKVHYLAWYQQKPGQPPKLLIYGASNRYIGVPDRFSGSGSGTDFTLTISSLQAEDVAVYYCANFYSYPLTFGGGTKVEIK
notes: scFv in periplasmic extract
On to B13, for which the OD450 in experiment [1] is 0.05 OD450; in experiment [2], 0.05 OD450; in experiment [3], 1.24 OD450; in experiment [4] it was 0.69 OD450; with BSA, 0.08 OD450.

B14: PcOxP_DB01_G04 (scFv, V domains shown)
VH: EVQLLESGGGLVQPGGSLRLSCAASGFTFSDGYMEWVRQAPGKGLEWVAASRNKANDYTTEYADSVKGRFTISRDNSKNTLYLQMNSLRAEDTAVYYCARDYYGSSYWYFDVWGQGTLVTVSS
VL: DIVMTQSPDSLAVSLGERATINCTASESLYSSKHKVHYLAWYQQKPGQPPKLLIYGASNRYSGVPDRFSGSGSGTDFTLTISSLQAEDVAVYYCAQFYSYPLTFGGGTKVEIK
notes: scFv in periplasmic extract
For B14, the OD450 in experiment [1] turned out to be 0.07 OD450; in experiment [2], 0.05 OD450; in experiment [3] it was 1.01 OD450; in experiment [4], 0.56 OD450; in the experiment with BSA, 0.07 OD450.

B15: PcOxP_DB01_H03 (scFv, V domains shown)
VH: EVQLLESGGGLVQPGGSLRLSCAASGFTFSDHYMEWVRQAPGKGLEWVAASRGKGNSYTTAYADSVKGRFTISRDNSKNTLYLQMNSLRAEDTAVYYCARDYYGSSYWYFDVWGQGTLVTVSS
VL: DIVMTQSPDSLAVSLGERATINCTASESLYSSKHKVHYLAWYQQKPGQPPKLLIYGAGNRYIGVPDRFSGSGSGTDFTLTISSLQAEDVAVYYCAQFYHYPLTFGGGTKVEIK
notes: scFv in periplasmic extract
Turning to B15, the OD450 in experiment [1] amounted to 0.06 OD450; in experiment [2], 0.07 OD450; in experiment [3], 1.29 OD450; in experiment [4] it was 0.46 OD450; in the experiment with BSA, 0.1 OD450.

Source of the values: patent US20250320312A1 (OXITOPE PHARMA B V, published 2025).
